{"source": "paper PMC6989705", "about": "(EJNMMI Radiopharmacy and Chemistry, 2020)", "origin": "cited, not measured here", "conditions": "endogenous ligand; ref Rai et al. [2015]; cited from earlier work", "method": "Somatostatin receptors (SSTRs) are validated biomarkers in the management of NETs. The short biological half-life of the endogenous ligand somatostatin (< 5 min) prevents pharmacological use of this peptide (Rai et al. [2015]). Therefore, synthetic somatostatin analogs that are more resistant to peptidases, such as octreotide, were developed. Using radiolabeled somatostatin analogs, the presence of SSTRs on tumor cells may be exploited for molecular imaging and targeted radionuclide therapy (TRNT) for the treatment of unresectable neuroendocrine tumors (Pauwels et al. [2018]; Deroose et al. [2 ..."}
{"substance": "somatostatin", "values": [{"measurement": "biological half-life", "result": "< 5", "unit": "min"}]}
